Experiment [1] deals with T1, 重组人CD47-his蛋白 (ACRO biosystems, cat#CD7-H5227, MW 15.6 kDa) (human, UniProt Q08722 19-139, biotin-labelled in the ELISA assays (sites not given); unlabelled in Biacore).
T1 construct: Bought protein; The same catalogue number is used unlabelled (SPR) and biotin-labelled (ELISAs); also called 人CD47蛋白; 生物素标记的人CD47; not shown: His tag
Nature of the experiment: SPR (Biacore T200), antibody captured on goat anti-mouse IgG, CD47-his in flow.

The target in experiment [2] is T2, 人CD47 (表面过表达人CD47的293F细胞) (human, UniProt Q08722 19-323).
T2 construct: whole, on cells; also called 表面过表达人CD47的稳定细胞系293F
Nature of the experiment: flow cytometry on 293F cells overexpressing human CD47.

The text below walks through data of patent CN115703834A (BOAOXIN BIOTECHNOLOGY NANJING CO LTD, dated 2023).

T2 sequence (Q08722 19-323): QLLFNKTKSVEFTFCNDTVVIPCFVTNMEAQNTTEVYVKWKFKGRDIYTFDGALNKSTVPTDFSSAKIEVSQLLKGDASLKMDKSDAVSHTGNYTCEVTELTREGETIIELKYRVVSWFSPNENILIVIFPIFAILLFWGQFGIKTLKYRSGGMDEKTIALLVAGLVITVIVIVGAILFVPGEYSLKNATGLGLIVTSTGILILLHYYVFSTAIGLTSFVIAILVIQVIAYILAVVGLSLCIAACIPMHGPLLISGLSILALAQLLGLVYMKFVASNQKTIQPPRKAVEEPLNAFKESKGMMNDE
T1 sequence (Q08722 19-139 limits assumed): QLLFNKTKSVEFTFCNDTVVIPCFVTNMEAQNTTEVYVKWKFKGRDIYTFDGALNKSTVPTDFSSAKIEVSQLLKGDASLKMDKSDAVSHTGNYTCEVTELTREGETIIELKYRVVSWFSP

B1: 抗人CD47单克隆抗体1A5 (antibody, V domains shown)
VH: EVQLQQSGAELVRSGASVTLSCTASGFNIKDYYMNWVKQRPEQGLEWIGWIGPENGDTENDPRFQGKATMTADTSSNTAFLQLSSLTSEDTAFYYCNAGGRGGFPYWGQGTLVTVST
VL: DILLTQTPLSLPVSLGDQASFSCRSSQNIVHINGKTYLEWYLQKPGQSPKLLIYRVSNRFSGVPDRFSGSGSGTDFTLKISRVEAEDLGVYYCFQGSHVPRTFGGGTKLEIK
notes: also called 本发明的单克隆抗体1A5; 本发明的抗体1A5
As to B1, the binding result in experiment [1] and in experiment [2] was “binds” each time.
